Laboratory results as given in paper PMC11444770, “Moesin contributes to heat shock gene response through direct binding to the Med15 subunit of the Mediator complex in the nucleus” (Open Biology, 2024).

T1: GST-Med15 (Drosophila melanogaster, UniProt Q9Y149 1-749)
T1 construct: Med15, Drosophila Mediator subunit; CDS amplified with the primers Med15 pGex6P-1 Fw/Rev (start to stop codon) and cloned into pGex6P-1; source: E. coli SixPack, purified on Glutathione Sepharose 4B, kept on the beads; not shown: GST, N-terminal, kept
T1 sequence (looked up): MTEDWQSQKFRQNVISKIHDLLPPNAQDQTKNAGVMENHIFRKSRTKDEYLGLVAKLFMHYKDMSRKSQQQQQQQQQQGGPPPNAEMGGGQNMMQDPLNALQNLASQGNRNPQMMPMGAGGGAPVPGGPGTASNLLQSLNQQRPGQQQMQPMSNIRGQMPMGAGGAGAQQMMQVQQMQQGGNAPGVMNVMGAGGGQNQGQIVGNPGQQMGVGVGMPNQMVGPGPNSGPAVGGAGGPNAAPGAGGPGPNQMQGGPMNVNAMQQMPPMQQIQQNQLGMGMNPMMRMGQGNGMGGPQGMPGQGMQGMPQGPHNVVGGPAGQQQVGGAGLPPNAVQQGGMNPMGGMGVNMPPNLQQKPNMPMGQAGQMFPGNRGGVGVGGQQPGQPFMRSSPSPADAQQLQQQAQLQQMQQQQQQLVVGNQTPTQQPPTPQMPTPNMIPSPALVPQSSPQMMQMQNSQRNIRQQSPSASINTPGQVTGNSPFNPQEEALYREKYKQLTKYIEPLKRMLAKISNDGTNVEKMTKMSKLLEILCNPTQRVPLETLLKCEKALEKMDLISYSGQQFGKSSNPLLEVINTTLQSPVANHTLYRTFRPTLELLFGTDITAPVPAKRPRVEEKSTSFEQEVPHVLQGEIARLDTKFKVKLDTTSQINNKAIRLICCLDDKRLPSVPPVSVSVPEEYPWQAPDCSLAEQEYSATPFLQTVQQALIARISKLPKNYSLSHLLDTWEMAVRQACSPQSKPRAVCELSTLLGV

B1: 6xHis-Hsf (natural protein, Drosophila melanogaster, UniProt P22813 1-691, looked up)
chain: MSRSRSSAKAVQFKHESEEEEEDEEEQLPSRRMHSYGDAAAIGSGVPAFLAKLWRLVDDADTNRLICWTKDGQSFVIQNQAQFAKELLPLNYKHNNMASFIRQLNMYGFHKITSIDNGGLRFDRDEIEFSHPFFKRNSPFLLDQIKRKISNNKNGDDKGVLKPEAMSKILTDVKVMRGRQDNLDSRFSAMKQENEVLWREIASLRQKHAKQQQIVNKLIQFLITIVQPSRNMSGVKRHVQLMINNTPEIDRARTTSETESESGGGPVIHELREELLDEVMNPSPAGYTAASHYDQESVSPPAVERPRSNMSISSHNVDYSNQSVEDLLLQGNGTAGGNILVGGAASPMAQSVSQSPAQHDVYTVTEAPDSHVQEVPNSPPYYEEQNVLTTPMVREQEQQKRQQLKENNKLRRQAGDVILDAGDILVDSSSPKAQRTSIQHSTQPDVMVQPMIIKSEPENSSGLMDLMTPANDLYSVNFISEDMPTDIFEDALLPDGVEEAAKLDQQQKFGQSTVSSGKFASNFDVPTNSTLLDANQASTSKAAAKAQASEEEGMAVAKYSGAENGNNRDTNNSQLLRMASVDELHGHLESMQDELETLKDLLRGDGVAIDQNMLMGLFNDSDLMDNYGLSFPNDSISSEKKAPSGSELISYQPMYDLSDILDTDDGNNDQEASRRQMQTQSSVLNTPRHEL
notes: heat shock factor (Hsf), the Drosophila Hsf1 homologue; The methods say C-terminal 6xHis tagging in pDEST17, while the label 6xHis-Hsf puts the tag first; as far as I recall pDEST17 adds an N-terminal His tag; also called heat shock factor; source: E. coli, purified (HisPur Cobalt Resin or Ni-NTA beads); not shown: 6xHis, C-terminal, kept
B2: GST-Med17 (natural protein, Drosophila melanogaster, UniProt Q9VEC1 1-642, looked up)
chain: MSNSVNISVETTCENQIREIGYDGTELYQPPPTLSESLAKCAARIDFSKTSLDDLKKEEKSAAAAADEDKDATQFQESLWPWDAVRNKLKDALTEICVLSDVISIAKDKRYLVLDPLLEEADDTKPIVQVYSRKKAISQAAQVLLSGAERLRNAHSEQRNRNVSDFHIELLRLRQNWRLKKVSNAIIGDLSYRTAGSKFGMSGTFEVTKAEETGDEDTASSSNSSSSVSGNNGMQLKASSALRVIVPAELQGVAYIKVITQKDQEDLCTAQLNLMGHGPNITAQVGVWQKTLEFAQNVLFCKELFAQLAREAIQLQAPIPHVVIGNQIRATLLPNIQLIISLCHSTTFDSSQPAPINDHDHVLEHSLHQLLREVHYKNSHHPFPHPASAPLGPTKKRMLAGPMAADRETLLDMTKSQTILEQIIAQAQHIFMRKRTQYVLDTLARDVKDPQIVSHWNAMNSPTMSCVKINIVTHGYDAIGRTSLVIHVKERSLKCICRDGRVMRLSYEPQELRDLILCQINSHQISCLISLARCMSWTVLSNSNHLGIGKVEPLGNASSCLLASPNSDRMIAVQIRCDPQIDVKVYIARSPRQDFFPSPLVPEKLWENLGGTFKEVRFDKIEGKSFLNKMEFLMASLTSNTA
notes: Med17, Drosophila Mediator subunit; CDS amplified with the primers Med17 pGex6P-1 Fw/Rev (start to stop codon) and cloned into pGex6P-1; source: E. coli SixPack, purified on Glutathione Sepharose 4B, kept on the beads; not shown: GST, N-terminal, kept

Legend:
Test in all cases: pull-down; GST-6xHis pull-down: GST-tagged baits immobilised on glutathione beads, purified 6xHis-tagged preys; 50 mM Hepes pH 7.5, 150 mM NaCl, 2 mM MgCl2, 1 mM EGTA, 1 mM DTT, 0.1% Triton X-100, 0.5 mg/ml BSA; 1.5 h at 4°C; western blot
Details in all cases: both partners purified
[1] = target: T1, GST-Med15
[2] = target: B1
[3] = target: B2

binding result [1]	binding result [2]	binding result [3]	Binder
binds	–	–	B1
–	binds	–	B2
binds	–	binds	6xHis-FERM-Moe (domain or fragment, Drosophila melanogaster, UniProt P46150 1-484, looked up, Drosophila Moesin, amino acids 1-484 (FERM-Moe); The methods say C-terminal 6xHis tagging in pDEST17, while the label 6xHis-FERM-Moe puts the tag first; as far as I recall pDEST17 adds an N-terminal His tag; also called 6xHis-tagged FERM-Moesin; source: E. coli, purified (HisPur Cobalt Resin or Ni-NTA beads); not shown: 6xHis, C-terminal, kept) MSPKALNVRVTTMDAELEFAIQSTTTGKQLFDQVVKTIGLREVWFFGLQYTDSKGDSTWIKLYKKVMNQDVKKENPLQFRFRAKFYPEDVAEELIQDITLRLFYLQVKNAILTDEIYCPPETSVLLASYAVQARHGDHNKTTHTAGFLANDRLLPQRVIDQHKMSKDEWEQSIMTWWQEHRSMLREDAMMEYLKIAQDLEMYGVNYFEIRNKKGTDLWLGVDALGLNIYEQDDRLTPKIGFPWSEIRNISFSEKKFIIKPIDKKAPDFMFFAPRVRINKRILALCMGNHELYMRRRKPDTIDVQQMKAQAREEKNAKQQEREKLQLALAARERAEKKQQEYEDRLKQMQEDMERSQRDLLEAQDMIRRLEEQLKQLQAAKDELELRQKELQAMLQRLEEAKNMEAVEKLKLEEEIMAKQMEVQRIQDEVNAKDEETKRLQDEVEDARRKQVIAAEAAAALLAASTTPQHHHVAEDENENEEELT
–	binds	–	GST-FERM-Moesin (domain or fragment, Drosophila melanogaster, UniProt P46150 1-484, looked up, pGex6P-1 vector; also called GST-Moesin; source: E. coli SixPack, purified on Glutathione Sepharose 4B, kept on the beads; not shown: GST, N-terminal, kept) MSPKALNVRVTTMDAELEFAIQSTTTGKQLFDQVVKTIGLREVWFFGLQYTDSKGDSTWIKLYKKVMNQDVKKENPLQFRFRAKFYPEDVAEELIQDITLRLFYLQVKNAILTDEIYCPPETSVLLASYAVQARHGDHNKTTHTAGFLANDRLLPQRVIDQHKMSKDEWEQSIMTWWQEHRSMLREDAMMEYLKIAQDLEMYGVNYFEIRNKKGTDLWLGVDALGLNIYEQDDRLTPKIGFPWSEIRNISFSEKKFIIKPIDKKAPDFMFFAPRVRINKRILALCMGNHELYMRRRKPDTIDVQQMKAQAREEKNAKQQEREKLQLALAARERAEKKQQEYEDRLKQMQEDMERSQRDLLEAQDMIRRLEEQLKQLQAAKDELELRQKELQAMLQRLEEAKNMEAVEKLKLEEEIMAKQMEVQRIQDEVNAKDEETKRLQDEVEDARRKQVIAAEAAAALLAASTTPQHHHVAEDENENEEELT
